We go through 2 molecules from patent publication US20220031650A1 (PDS BIOTECHNOLOGY, published 2022).

Assay [1] has as its target T1, H-2K^b molecules on RMA-S cells (mouse, UniProt P01901 22-369; P01887 21-119).
T1 construct: whole, on cells
T1 sequence (MHC heavy): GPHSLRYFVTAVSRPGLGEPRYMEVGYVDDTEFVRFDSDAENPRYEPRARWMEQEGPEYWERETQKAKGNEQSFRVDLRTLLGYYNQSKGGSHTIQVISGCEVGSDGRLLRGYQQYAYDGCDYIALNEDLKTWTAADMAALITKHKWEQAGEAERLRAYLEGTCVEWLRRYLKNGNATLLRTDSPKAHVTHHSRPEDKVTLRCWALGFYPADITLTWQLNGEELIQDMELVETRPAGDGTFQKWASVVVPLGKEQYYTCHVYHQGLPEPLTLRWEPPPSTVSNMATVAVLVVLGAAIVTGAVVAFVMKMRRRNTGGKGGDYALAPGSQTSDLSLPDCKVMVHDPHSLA
T1 sequence: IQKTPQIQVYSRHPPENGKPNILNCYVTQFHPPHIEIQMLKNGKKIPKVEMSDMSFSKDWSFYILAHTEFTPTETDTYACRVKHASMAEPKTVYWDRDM
Nature of the assay: RMA-S MHC class I stabilisation assay, flow cytometry with anti-H-2K^b antibody.

For assay [2], the target named is T2, H-2D^b molecules on RMA-S cells (mouse, UniProt P01899 25-362; P01887 21-119).
T2 construct: whole, on cells; also called MHC class I
T2 sequence (MHC heavy, looked up): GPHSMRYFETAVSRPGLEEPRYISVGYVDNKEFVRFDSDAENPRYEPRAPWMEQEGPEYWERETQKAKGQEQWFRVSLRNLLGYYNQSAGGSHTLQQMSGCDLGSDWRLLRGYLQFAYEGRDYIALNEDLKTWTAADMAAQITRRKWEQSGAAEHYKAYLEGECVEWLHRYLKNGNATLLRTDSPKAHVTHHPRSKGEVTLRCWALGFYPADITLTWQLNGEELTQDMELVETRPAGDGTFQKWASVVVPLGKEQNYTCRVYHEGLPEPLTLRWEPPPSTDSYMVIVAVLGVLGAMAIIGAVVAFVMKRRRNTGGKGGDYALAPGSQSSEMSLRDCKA
T2 sequence (looked up): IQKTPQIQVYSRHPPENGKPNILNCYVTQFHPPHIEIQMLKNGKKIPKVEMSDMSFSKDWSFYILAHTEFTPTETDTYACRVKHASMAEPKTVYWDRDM
Nature of the assay: RMA-S MHC class I stabilisation assay, 10 µM peptide, flow cytometry with anti-H-2D^b antibody, medium control. Background: In flow cytometry, cells or beads pass a laser one at a time.
Method: We evaluated the MHC class I binding affinity of native and KSS-elongated E7 peptides. RMA-S cells, a mouse lymphoma cell line at a concentration of 5×10⁵ cells/ml were incubated overnight at 27° C. with native E7 or KSS-E7 peptide (10 μM). Cells incubated with medium were used as a control. Cells were then incubated for 2 h at 37° C. After washes, cells were stained with fluorescently conjugated monoclonal antibodies against H-2D^b or H-2K^b molecules on the cell surface prior to flow cytometry analysis.

B1: KSS-E7 peptide (KSS (lysine-serine-serine)-elongated E7 peptide without the lipid chain) (peptide)
peptide: KSSRAHYNIVTF
notes: Not lipidated; added at 10 uM to RMA-S cells; also called KSS-elongated E7 peptide
In the case of B1, in assay [1], the binding result was “no binding (tested: 10 µM)”. In addition, the “fold increase in the mean fluorescence (H-2D^b on RMA-S cells)” value in assay [2] worked out at 8 fold.

B2: native E7 peptide (HPV 16 E7 protein, amino acid 49-57, H-2D^b restricted CTL epitope) (peptide)
peptide: RAHYNIVTF
notes: Synthetic free peptide, added at 10 uM to RMA-S cells; also called E7 antigen
On to B2, for which the binding result in assay [1] is given as “no binding (tested: 10 µM)”. The “fold up-regulation of H-2D^b molecules on RMA-S cells compared to the control” value in assay [2] was found to be 4 fold.
